Measurements reported in patent US20030099984A1 (TEXAS A AND M UNIVERSITY SYSTEM, published 2003).

Key:
[1] = molecular target: the molecule itself; assay: yeast two-hybrid, beta-galactosidase filter assay; bait and prey RNase H-like protein
[2] = molecular target: T1, untagged hen egg white lysozyme (hen, UniProt P00698 19-147); assay: farwestern blot (FIG. 13), control lane
T1 construct: Negative control; also called HEWL

untagged RNase A = molecular target: T2, untagged RNase A (UniProt P61823 27-150); assay: farwestern blot (FIG. 13), control lane
T2 construct: Negative control
T2 sequence: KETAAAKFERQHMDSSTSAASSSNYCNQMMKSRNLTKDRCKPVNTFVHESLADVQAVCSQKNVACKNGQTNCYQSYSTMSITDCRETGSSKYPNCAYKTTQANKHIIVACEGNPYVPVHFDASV

[3] = molecular target: T3, untagged bovine serum albumen (bovine, UniProt P02769 25-607); assay: Ni column pull down under physiological conditions, SDS PAGE autoradiogram
T3 construct: Negative control; also called BSA
T3 sequence (P02769 25-607 limits assumed): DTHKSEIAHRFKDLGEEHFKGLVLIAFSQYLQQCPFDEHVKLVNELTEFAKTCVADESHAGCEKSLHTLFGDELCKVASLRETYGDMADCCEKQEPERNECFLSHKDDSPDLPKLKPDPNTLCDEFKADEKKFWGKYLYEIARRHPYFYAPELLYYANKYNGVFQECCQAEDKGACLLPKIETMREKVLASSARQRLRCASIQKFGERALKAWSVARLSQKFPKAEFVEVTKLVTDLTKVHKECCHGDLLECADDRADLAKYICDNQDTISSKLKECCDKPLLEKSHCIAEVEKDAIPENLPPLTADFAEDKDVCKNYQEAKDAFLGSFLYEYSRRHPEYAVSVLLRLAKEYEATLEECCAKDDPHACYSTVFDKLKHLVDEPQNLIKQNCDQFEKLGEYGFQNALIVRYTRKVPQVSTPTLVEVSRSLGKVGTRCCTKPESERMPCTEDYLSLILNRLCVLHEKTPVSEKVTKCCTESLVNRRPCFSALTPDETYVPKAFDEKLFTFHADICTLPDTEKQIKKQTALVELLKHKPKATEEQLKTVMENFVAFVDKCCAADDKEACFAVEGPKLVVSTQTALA

T1 sequence (P00698 19-147): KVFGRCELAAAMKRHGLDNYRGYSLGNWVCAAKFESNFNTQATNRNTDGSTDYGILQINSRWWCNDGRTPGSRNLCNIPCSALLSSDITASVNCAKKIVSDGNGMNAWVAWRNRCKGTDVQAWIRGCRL

B1: RNase H-like protein (sugarcane), yeast two-hybrid fusion (other)
chain: GHYGRGEHCMKNMAASYSQDAQLDLVLPDAPVDASASRSEHSSQLASSNWRSVIQNSPPDLLCGCGRPAIRRTAETAKNNGRIFRTCPACKIWIWQDLLDSYVNALISYCRDASIDSLQSELESSRLLISEKQAQISRLEKQLETLQPLISKYTEQSRSIAQASIPSSLFFLEACSLRHQRRRVNENQGGANFKRSYWSD
notes: Prey clone from the cDNA library of silenced sugarcane plant #16; same id for bait and prey fusions
- binding result [1]: binds

B2: 35S labeled RNase H-like protein transcription and translation (TNT) product (other)
chain: B1 chain
modifications: labeled with 35S Cysteine
notes: Made in rabbit reticulocyte lysate; used as probe in farwestern blots and as the labelled partner in the pull down
- binding result [2]: no binding
- binding result (untagged RNase A): no binding
- binding result [3]: no binding
